A word on the Km: it is the concentration of substrate that gives half-maximal velocity. In general, Vmax refers to the rate approached at saturating substrate. The term kcat denotes the maximal rate divided by the concentration of active sites. By kcat/Km is commonly meant the turnover number divided by the Michaelis constant.

Results on one protein are retold here after paper PMC9503767, “Site-Differentiated Iron–Sulfur Cluster Ligation Affects Flavin-Based Electron Bifurcation Activity” (Metabolites, 2022).

Substrate in the data set: NC(=O)C1=CN([C@@H]2O[C@H](COP(=O)(O)OP(=O)(O)OC[C@H]3O[C@@H](n4cnc5c(N)ncnc54)[C@H](OP(=O)(O)O)[C@@H]3O)[C@@H](O)[C@H]2O)C=CC1
Kind of data set: purified protein. Format: biochemical, Pyrococcus furiosus. To be noted: FAD; two [4Fe-4S] clusters oxidized by L-FAD.

B1: NfnL (large subunit of NADH-dependent reduced-ferredoxin: NADP+ oxidoreductase NfnSL) (Pyrococcus furiosus DSM 3638) (protein)
chain: MPRLIKDRVPTPERSVGERVRDFGEVNLGYSWELALREAERCLQCPVEYAPCIKGCPVHINIPGFIKALRENRDNPSKAVREALRIIWRDNTLPAITGRVCPQEEQCEGACVVGKVGDPINIGKLERFVADYAREHGIDDELLLEEIKGIKRNGKKVAIIGAGPAGLTCAADLAKMGYEVTIYEALHQPGGVLIYGIPEFRLPKEIVKKELENLRRLGVKIETNVLVGKTITFEELREEYDAIFIGTGAGTPRIYPWPGVNLNGIYSANEFLTRINLMKAYKFPEYDTPIKVGKRVAVIGGGNTAMDAARSALRLGAEVWILYRRTRKEMTAREEEIKHAEEEGVKFMFLVTPKRFIGDENGNLKAIELEKMKLGEPDESGRRRPIPTGETFIMEFDTAIIAIGQTPNKTFLETVPGLKVDEWGRIVVDENLMTSIPGVFAGGDAIRGEATVILAMGDGRKAAKAIHQYLSKEK
notes: isolated NfnL-WT subunit
As for B1, the Km came out at 1300 ± 100 µM, the Vmax was determined as 3000 µM/min, the catalytic constant (kcat) was 2.3 ± 0.3 s⁻¹ and the kcat/Km was 1700 ± 300 M⁻¹ s⁻¹.
